Experimental data published in publication PMC4476040.

Target: N-HGbRL, the N-terminal globin domain of HGbRL from Methylacidiphilum infernorum (Methylacidiphilum infernorum)
Test: crystal structure; open, imidazole-bound form; space group C2, two subunits in the asymmetric unit; crystals at 20 °C in 3.5 M 1,6-hexanediol, 0.1 M sodium citrate pH 5.6; 1.94 Å

- stoichiometry N: 2
Substance: N-HGbRL, the N-terminal globin domain of HGbRL from Methylacidiphilum infernorum (domain or fragment)
